{"source": "IntAct's records for PubMed 9171338", "parents": {"B1": {"name": "Clathrin heavy chain (Saccharomyces cerevisiae), P22137 (parent)", "chain": "MSDLPIEFTELVDLMSLGISPQFLDFRSTTFESDHFVTVRETKDGTNSVAIVDLAKGNEVTRKNMGGDSAIMHPSQMVISVRANGTIVQIFNLETKSKLKSFTLDEPVIFWRWLSETTLGFVTARSILTSNVFDGNVNAKPQLLTLRHANLNNTQIINFVANKNLDWFAVVGILQENGRIAGRIQLFSKQRNISQAIDGHVAIFTNILLEGNGSTPVQVFVTGNRNATTGAGELRIIEIDHDASLPSQYQKETTDIFFPPDATNDFPIAVQVSEKYGIIYLLTKYGFIHLYELETGTNLFVNRITAESVFTAAPYNHENGIACINKKGQVLAVEISTSQIVPYILNKLSNVALALIVATRGGLPGADDLFQKQFESLLLQNDYQNAAKVAASSTSLRNQNTINRLKNIQAPPGAISPILLYFSTLLDKGKLNKEETIELARPVLQQDRKQLFEKWLKEDKLECSEELGDIVKPFDTTLALACYLRAGAHAKVISCLAELQQFEKIIPYCQKVGYQPNFLVLISSLIRSSPDRASEFAVSLLQNPETASQIDIEKIADLFFSQNHIQQGTSLLLDALKGDTPDQGHLQTRVLEVNLLHAPQVADAILGNNIFSHYDKPTIASLSEKAGLYQRALENYTDIKDIKRCVVHTNALPIDWLVGYFGKLNVEQSLACLKALMDNNIQANIQTVVQVATKFSDLIGPSTLIKLFEDYNATEGLYYYLASLVNLTEDKDVVYKYIEAAAKMKQYREIERIVKDNNVYDPERVKNFLKDANLEDQLPLVIVCDRFDFVHEMILYLYKSQNLKFIETYVQQVNPSKTAQVVGALLDMDCDEAFIQSLLQSVLGQVPINELTTEVEKRNRLKILLPFLEQSLSQGIQDQAVYNALAKIYIDSNNSPEKFLKENDQYDTLDVGHYCEKRDPYLAYIAYEKGQNDDDLIRITNENSMYKYQARYLLERSDLDLWNKVLNQENIHRRQLIDSVISVGIPELTDPEPVSLTVQAFMTNGLKLELIELLEKIILEPSPFNENVALQGLLLLSAIKYEPTKVSSYIEKLDNYDADEIAPLCIEHDLKEEAFEIYDKHEMYGKALKVLIEDIMSLDRAASYADKINTPELWSQIGTAQLDGLRIPDAIESYIKAEDPSNYENVIDIAEQAGKYEELIPFLLMARKTLKEPKIDGALILAYAELNKIHEIENLLAGSNVANLDHVGDKLFENKEYKAARLCYSAVSNYSKLASTLVYLGDYQAAVDTARKASNIKVWKLVNDACIEKKEFKLAQICGLNLIVHAEELDELVERYESNGYFEELISLFEAGLGLERAHMGMFTELAILYSKYEPDKTFEHLKLFWSRINIPKVIRAVEQAHLWSELVFLYAHYDEWDNAALTLIEKSTKDLDHAYFKEVVVKVSNLEIYYKAINFYVKFHPSLLVDLLTSLTPRLDIPRTVKIFSKSDNLPLIKPFLINVLPKNNSVVNQAYHDLMIEEEDYKALQDAVDSYDKFDQLGLASRLESHKLIFFKKIGALLYRRNKKWAKSLSILKEEKLWKDAIETAAISQDPKVVEALLTYFVETGNREGFVALLYAAYNLVRIEFVLEISWMNSLEDYIKPFEISIKKEQNDSIKKITEELAKKSGSNEEHKDGQPLMLMNSAMNVQPTGF", "partner": "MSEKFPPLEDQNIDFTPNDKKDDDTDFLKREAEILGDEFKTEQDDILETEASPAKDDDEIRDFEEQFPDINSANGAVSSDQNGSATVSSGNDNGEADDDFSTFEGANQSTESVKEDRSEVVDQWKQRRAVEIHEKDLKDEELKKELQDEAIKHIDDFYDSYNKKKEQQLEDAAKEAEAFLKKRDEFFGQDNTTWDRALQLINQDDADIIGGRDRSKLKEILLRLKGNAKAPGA"}}, "data": [{"variants_of": "B1", "conditions": "with clc1_yeast CLC1, P17891", "values": [{"variant": "S1331F;S1347F", "effect of a mutation on the interaction": "with no effect"}, {"variant": "S1331F;S1347F;E1590A", "effect of a mutation on the interaction": "disrupting interaction strength"}, {"variant": "S1331F;S1347F;E1590K", "effect of a mutation on the interaction": "disrupting interaction strength"}, {"variant": "S1331F;S1347F;P1553L", "effect of a mutation on the interaction": "with no effect"}, {"variant": "S1331F;S1347F;P1553L;E1590K", "effect of a mutation on the interaction": "disrupting interaction strength"}, {"variant": "S1347F;P1553L", "effect of a mutation on the interaction": "with no effect"}, {"variant": "S1347F;P1553L;E1590K", "effect of a mutation on the interaction": "disrupting interaction strength"}, {"variant": "P1553L;E1590K", "effect of a mutation on the interaction": "disrupting interaction strength"}, {"variant": "E1590K", "effect of a mutation on the interaction": "disrupting interaction strength"}]}, {"variants_of": "B1", "conditions": "with clc1_yeast CLC1, P17891", "remark": "another data set of the same source", "values": [{"variant": "S1331F;S1347F;E1590A", "effect of a mutation on the interaction": "disrupting interaction strength"}, {"variant": "E1590A", "effect of a mutation on the interaction": "disrupting interaction strength"}]}]}
